Numbering of substitutions follows the chain as printed. Read-outs that look alike come from different tables or passages of the source.
B1: 14 (protein)
chain: MADLYENPMGLMGFEFIEFASPTPGTLEPIFEIMGFTKVATHRSKNVHLYRQGEINLILNNEPNSIASYFAAEHGPSVCGMAFRVKDSQKAYNRALELGAQPIHIDTGPMELNLPAIKGIGGAPLYLIDRFGEGSSIYDIDFVYLEGVERNPVGAGLKVIDHLTHNVYRGRMVYWANFYEKLFNFREARYFDIKGEYTGLTSKAMSAPDGMIRIPLNEESSKGAGQIEEFLMQFNGEGIQHVAFLTDDLVKTWDALKKIGMRFMTAPPDTYYEMLEGRLPDHGEPVDQLQARGILLDGSSVEGDKRLLLQIFSETLMGPVFFEFIQRKGHDGFGPDSFKVLFESVERDQVRRGVLTAD
modifications: mutant HPPD polypeptide
B2: 7 (protein)
chain: B1 chain with H330D, V340A, V345I
modifications: mutant HPPD polypeptide
B3: 19 (protein)
chain: B1 chain with M264R, P268G, T270E
modifications: mutant HPPD polypeptide
B4: 22 (protein)
chain: B1 chain with H330D, D336H, V345I
modifications: mutant HPPD polypeptide
B5: 86 (protein)
chain: B1 chain with P268G, T270E, H330D, V340Q
modifications: mutant HPPD polypeptide
B6: 59 (protein)
chain: B1 chain with P268G, T270E, H330D, S344R
modifications: mutant HPPD polypeptide
B7: 29 (protein)
chain: B1 chain with P268S, T270S, H330D, D336H
modifications: mutant HPPD polypeptide
B8: 24 (protein)
chain: B1 chain with H330D, D336H
modifications: mutant HPPD polypeptide
B9: 10 (protein)
chain: B1 chain with H330D
modifications: mutant HPPD polypeptide
B10: 30 (protein)
chain: B1 chain with P268S, T270S, H330D, D336H, V345K
modifications: mutant HPPD polypeptide
B11: 21 (protein)
chain: B1 chain with H330D, D336H, V340A, V345I
modifications: mutant HPPD polypeptide

Experiments:
[1] = tested on: HPPD polypeptides (wild-type SEQ ID NO:1 and mutants)
Experimental: For the generation of crude HPPD polypeptide extract in micro titer plates (MTP) for the determination of residual activity in inhibition assays, cells were grown in 40 or 150 μl LB medium containing 1% Glucose (Merck, Darmstadt, Germany) and 100 μg/ml ampicillin in a standard 96 well plate (Thermo Fisher Scientific, Waltham, USA) incubated for about 18 h in a humidity incubator at 37° C.
30 μl of this starter culture were added to 600 μl LB medium containing 100 μg/ml ampicillin and 150 mM Hepes (Merck, Darmstadt, Germany) as inoculum for the expression culture in 96 well plates (2 ml deep wells; HJ Bioanalytik, Erkelenz, Germany) The plates were sealed by an aluminium foil, and cells were incubated for 5 h at 37° C. on a plate shaker at 750 rpm. The expression was induced by addition of IPTG in a final concentration of 1 mM followed by further sealed incubation for about 18 h at 30° C. on a plate shaker at 750 rpm.
Cells were harvested by centrifugation at 4° C., 2500 g for 15 min discarding the supernatant. Cell pellets were stored at −80° C. and lysed in 250 μl 1× BugBuster® (Merck, Darmstadt, Germany) in 140 mM Tris (pH 7.8), with 1:25000 diluted BNase® (Qiagen, Hilden, Germany) by incubation of the resuspended cells for 30 min at 4° C. and 1000 rpm. Lysates were clarified by centrifugation for 15 min at 4° C., 2500 g, and 150 μl supernatant were transferred in standard 96 well plate (Thermo Fisher Scientific, Waltham, USA) for subsequent testing in quadruplets.
The activity of HPPD polypeptides was determined in absence or presence of HPPD inhibitors using the coupled HPPD activity assay (FIG. 1).
For the determination of the residual activity, the apparent kinetic constant (kapp) of the determined substrate conversion was measured as kinetic changes in absorbance at 320 nm in a coupled assay, in that homogentisate (HGA) formed by HPPD from HPP is directly converted into the well absorbing molecule maleylacetoacetate (MAA) by a second enzyme homogentisate dioxygenase (HGD), applied in excess uniformly in all assays (see FIG. 1). The measurements were performed in 384 micro titer plates (Greiner Bio-One GmbH, Frickenhausen, Germany) by plate readers (Tecan infinite M1000 or M1000PRO, Tecan, Männedorf, Switzerland). The kcat/kM ratio of an enzymatic activity is proportional to the apparent kinetic constant kapp and is proportional to kcat/kM*[E] ([E]=enzyme concentration). […] As both kapp measurements in the presence and absence of inhibitor were performed by use of the identical enzyme sample, crude or purified, and thereby at the same enzyme concentration, the enzyme concentration eliminates from the calculation of residual activity and the ratio of both kapp directly indicates the change of kM due to the inhibition.

[2] = tested on: E. coli cells expressing an HPPD polypeptide; assay: Brown color bioassay in liquid culture, residual brown color formation (BCF), OD440 after 96 hours; type: cell-based; conditions: for Control BCF OD440nm: brown color formation in absence of Cmpd. 1, culture supernatant after 96 hours, 5 mM HPP; for Residual BCF OD440nm [%]: brown color formation with Cmpd. 1 (1000 μM) relative to without, after 96 hours
Experimental: In an additional experiment, mutant HPPD polypeptides were analyzed using the principle of a colorimetric brown color assay (as, for example, described in U.S. Pat. No. 6,768,044). Bacterial cells expressing the HPPD polypeptides according to this invention were assayed in 96 well plate format (Nunc® 96 DeepWell™ plate, Sigma-Aldrich, St. Louis, USA) for HPPD polypeptides with improved HPPD inhibitor herbicide tolerance.
E. coli cells were grown in liquid LB medium (Carl Roth GmbH+Co. KG, Karlsruhe, Germany) containing the selection agent for the expression vector pSE420(RI)NX (WO2014/043435) and 5 mM para-hydroxyphenylpyruvate (HPP; Sigma-Aldrich, St. Louis, USA), in the presence of absence of the HPPD inhibitor herbicide e.g. Cmpd. 1 (1000 μM). An overnight culture of E. coli culture expressing one of the respective HPPD polypeptides according to this invention were adjusted to an OD600 of 0.3-0.5 in a final volume of 500 μL and incubated at 30 degree Celsius. Residual brown color formation was determined by measuring the brown color formation (BCF) in the presence and absence of Cmpd. […] Therefore, after 96 hours the culture was centrifuged and the supernatant of the culture was used to measure the optical density of the soluble brown pigment formation at 440 nm (OD440 nm).

[3] = in the presence of Cmpd. 1, 15 μM inhibitor, high substrate concentration, kapp normalized to kapp without inhibitor
[4] = in the presence of Cmpd. 1, 15 μM inhibitor, high substrate concentration, total change in signal normalized to no inhibitor
[5] = in the presence of Cmpd. 2, 15 μM inhibitor, high substrate concentration, kapp normalized to kapp without inhibitor
[6] = in the presence of Cmpd. 2, 15 μM inhibitor, high substrate concentration, total change in signal normalized to no inhibitor
[7] = in the presence of diketonitrile (DKN), 60 μM inhibitor, high substrate concentration, kapp normalized to kapp without inhibitor
[8] = in the presence of diketonitrile (DKN), 60 μM inhibitor, high substrate concentration, total change in signal normalized to no inhibitor
[9] = in the presence of mesotrione (MST), 60 μM inhibitor, high substrate concentration, kapp normalized to kapp without inhibitor
[10] = in the presence of mesotrione (MST), 60 μM inhibitor, high substrate concentration, total change in signal normalized to no inhibitor
[11] = kapp in presence of 50 μM Cmpd. 1, normalised to kapp without inhibitor, low substrate concentration
[12] = total change in signal in presence of 50 μM Cmpd. 1, normalised to that without inhibitor, low substrate concentration

Molecule	Residual activity [1, 3]	Residual turnover [1, 4]	Residual activity [1, 5]	Residual turnover [1, 6]	Residual activity [1, 7]	Residual turnover [1, 8]	Residual activity [1, 9]	Residual turnover [1, 10]	Control BCF OD440nm [2]	Residual BCF OD440nm [%] [2]	Residual activity [1, 11]	Residual turnover [1, 12]
Cc1nnc(NC(=O)c2ccc(C(F)(F)F)c(S(C)(=O)=O)c2C)o1 [Cmpd. 2, 2-methyl-N-(5-methyl-1,3,4-oxadiazol-2-yl)-3-(methylsulfonyl)-4-(trifluoromethyl)benzamide, reference compound]	39%	50%	51%	72%	86%	93%	71%	85%	2.68	18%	–	–
B1	44%	60%	82%	92%	91%	n.i	70%	89%	1.42	63%	–	–
B2	27%	38%	75%	83%	79%	92%	70%	85%	1.83	40%	–	–
B3	68%	79%	92%	93%	n.i. (no inhibition was observed under the given conditions)	n.i	51%	78%	1.65	60%	67%	88%
B4	26%	53%	90%	n.i.	n.i	n.i.	77%	99%	1.67	58%	–	–
B5	–	–	–	–	–	–	–	–	1.94	74%	23%	45%
B6	–	–	–	–	–	–	–	–	1.29	51%	19%	46%
B7	33%	59%	85%	n.i.	94%	n.i.	79%	95%	2.03	42%	–	–
B8	28%	57%	90%	n.i.	93%	n.i.	51%	68%	1.56	48%	–	–
B9	41%	66%	89%	n.i.	n.i. (no inhibition was observed under the given conditions)	n.i.	82%	n.i.	1.09	65%	–	–
B10	39%	65%	95%	n.i.	n.i. (no inhibition was observed under the given conditions)	n.i.	87%	n.i.	1.70	56%	–	–
B11	18%	30%	73%	84%	81%	n.i	62%	89%	0.99	65%	–	–
